Article PMC8059062 (The Journal of Biological Chemistry, 2021)
Ends that are not written are not given here.

Experiments:
[1] = biological target: T1, full-length FGF12A (aa 1-243) (human, UniProt P61328-1 1-243); experiment: co-purification after refolding; denatured His-GST-FGF12A refolded by rapid dilution at 4 C into buffer with CaM+NaV1.2CTD (0.2 uM); tag cleaved, nickel resin repass, anion exchange (pH 8.5-7.4, KCl 0-300 mM) removes CaM; settings: both partners purified
T1 construct: four nonnative residues left at the N terminus after removal of the His-GST tag with 3C protease; human FGF12A (A-type splice variant of FGF12), full-length, aa 1-243; Obtained only as the FGF12A+NaV1.2CTD complex; not shown: His-GST, N-terminal, cleaved
T1 sequence: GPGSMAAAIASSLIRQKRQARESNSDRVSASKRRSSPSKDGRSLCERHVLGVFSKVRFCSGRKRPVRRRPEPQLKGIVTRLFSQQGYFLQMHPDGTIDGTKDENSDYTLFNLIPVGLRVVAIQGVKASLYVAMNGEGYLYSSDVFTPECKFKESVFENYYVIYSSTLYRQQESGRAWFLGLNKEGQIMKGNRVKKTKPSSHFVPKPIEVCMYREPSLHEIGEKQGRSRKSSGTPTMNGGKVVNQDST

[2] = biological target: T2, calmodulin, wild type, full-length (aa 1-148) (human, UniProt P0DP23 1-149); experiment: other fluorescence titration; YFP-CFP FRET biosensor (>=1 nM) with Ca2+-saturated WT or mutant CaM, emission spectra and equilibrium titrations; 50 mM HEPES, 100 mM KCl, 1 mM MgCl2, 50 uM EGTA, 5 mM NTA, 1.5 uM BSA, 500 uM DTT, 1 mM CaCl2, pH 7.4, 22 C
T2 construct: human calmodulin, full-length, aa 1-148; numbers count on: the protein without the initial Met (UniProt numbers are one higher); Ca2+-saturated ((Ca2+)4-CaM) and Ca2+-depleted (apo) states are the same molecule; the state is told by the assay; 15N-labelled in some NMR samples; also called CaM; WT CaM; source: bacterially overexpressed (pT7-7 vector) and purified; also bacterially coexpressed with …

[3] = biological target: T2, calmodulin, wild type, full-length (aa …); experiment: not stated; (Ca2+)4-CaM binding to NaV IQ motifs; data not shown
[4] = biological target: T2, calmodulin, wild type, full-length (aa …); experiment: NMR 15N-HSQC chemical shift comparison; copurified 1:1 complexes, one partner 15N-labelled (290-600 uM), compared with isolated (Ca2+)2-CaMN and (Ca2+)2-CaMC and with each other; 50 mM HEPES, 100 mM KCl, 1 mM MgCl2, 50 uM EGTA, 5 mM NTA, 10 mM CaCl2, pH 7.4, 25 C; settings: both partners purified

B1: NaV1.2CTD (fragment of the NaV1.2 C-terminal domain, residues 1777-1937, with EFL and IQ motif) (domain or fragment, human)
chain: GPGSENFSVATEESAEPLSEDDFEMFYEVWEKFDPDATQFIEFAKLSDFADALDPPLLIAKPNKVQLIAMDLPMVSGDRIHCLDILFAFTKRVLGESGEMDALRIQMEERFMASNPSKVSYEPITTTLKRKQEEVSAIIIQRAYRRYLLKQKVKKVSSIYKKDKG
notes: four nonnative residues left at the N terminus after removal of the His-GST tag with 3C protease; human NaV1.2 (SCN2A) C-terminal domain fragment, aa 1777-1937, contains the EF-hand like domain and the IQ motif; source: bacterial coexpression with CaM, copurified; not shown: His-GST, N-terminal, cleaved
binding result [1]: binds

B2: FGF11A_(CaMBD) biosensor (FGF11A CaMBD, residues 36-62, between YFP and CFP) (domain or fragment)
chain: KSLCQKQLLILLSKVRLCGGRPARPDR
modifications: cysteine pairing not given here; also: fused between YFP and CFP
notes: source: expressed from a pET21B vector
Kd [2]: 19 nM

B3: FGF12A_(CaMBD) biosensor (FGF12A CaMBD, residues 38-64, between YFP and CFP) (domain or fragment)
chain: RSLCERHVLGVFSKVRFCSGRKRPVRR
modifications: cysteine pairing not given here; also: fused between YFP and CFP
notes: as for B2
Kd [2]: 107 nM

B4: NaV1.2 IQ motif (domain or fragment)
chain: EEVSAIIIQRAYRRYLLKQKVKKVSSIYKK
notes: IQ motif of NaV1.2; also called IQ motif of NaV1.2
Kd [3]: 19.8 nM

B5: FGF12ANTD (FGF12A N-terminal domain, aa 1-70) (domain or fragment)
chain: GPGSMAAAIASSLIRQKRQARESNSDRVSASKRRSSPSKDGRSLCERHVLGVFSKVRFCSGRKRPVRRRPEPQL
notes: four nonnative residues left at the N terminus after removal of the His-GST tag with 3C protease; human FGF12A N-terminal domain, aa 1-70, contains LTP and CaMBD; 15N-labelled in some NMR samples; source: bacterial coexpression with CaM, copurified; not shown: His-GST, N-terminal, cleaved
binding result [4]: binds

B6: FGF12ALTP biosensor (FGF12A LTP, residues 1-23, between YFP and CFP) (domain or fragment)
chain: MAAAIASSLIRQKRQARESNSDR
notes: as for B2
Kd [2]: 576 nM

B7: FGF13A_(CaMBD) biosensor (FGF13A CaMBD, residues 35-60, between YFP and CFP) (domain or fragment)
chain: KTSCDKNKLNVFSRVKLFGSKKRRRR
modifications: also: fused between YFP and CFP
notes: as for B2
Kd [2]: 13 nM
